Results taken from paper PMC6453860.

B1: ASGP-R1 H1a (asialoglycoprotein receptor 1): N79Q (protein)
parent chain: MTKEYQDLQHLDNEESDHHQLRKGPPPPQPLLQRLCSGPRLLLLSLGLSLLLLVVVCVIGSQNSQLQEELRGLRETFSNFTASTEAQVKGLSTQGGNVGRKMKSLESQLEKQQKDLSEDHSSLLLHVKQFVSDLRSLSCQMAALQGNGSERTCCPVNWVEHERSCYWFSRSGKAWADADNYCRLEDAHLVVVTSWEEQKFVQHHIGPVNTWMGLHDQNGPWKWVDGTDYETGFKNWRPEQPDDWYGHGLGGGEDCAHFTDDGRWNDDVCQRPYRWVCETELDKASQEPPLL
B2: ASGP-R1 H1a (asialoglycoprotein receptor 1): N147Q (protein)
parent chain: MTKEYQDLQHLDNEESDHHQLRKGPPPPQPLLQRLCSGPRLLLLSLGLSLLLLVVVCVIGSQNSQLQEELRGLRETFSNFTASTEAQVKGLSTQGGNVGRKMKSLESQLEKQQKDLSEDHSSLLLHVKQFVSDLRSLSCQMAALQGNGSERTCCPVNWVEHERSCYWFSRSGKAWADADNYCRLEDAHLVVVTSWEEQKFVQHHIGPVNTWMGLHDQNGPWKWVDGTDYETGFKNWRPEQPDDWYGHGLGGGEDCAHFTDDGRWNDDVCQRPYRWVCETELDKASQEPPLL
B3: ASGP-R1 H1a (asialoglycoprotein receptor 1): N79Q/N147Q (protein)
parent chain: MTKEYQDLQHLDNEESDHHQLRKGPPPPQPLLQRLCSGPRLLLLSLGLSLLLLVVVCVIGSQNSQLQEELRGLRETFSNFTASTEAQVKGLSTQGGNVGRKMKSLESQLEKQQKDLSEDHSSLLLHVKQFVSDLRSLSCQMAALQGNGSERTCCPVNWVEHERSCYWFSRSGKAWADADNYCRLEDAHLVVVTSWEEQKFVQHHIGPVNTWMGLHDQNGPWKWVDGTDYETGFKNWRPEQPDDWYGHGLGGGEDCAHFTDDGRWNDDVCQRPYRWVCETELDKASQEPPLL

Tests used:
Conditions in all cases: glycan lost; control: wild-type ASGP-R1 in U87 cells
[1] = SMN2 exon 7 inclusion RT-PCR, 0-30 µM dose response
[2] = SMN2 exon 7 inclusion RT-PCR, single 30 nM dose
[3] = Western blot quantification normalised to tubulin

Protein | other: receptor-mediated GN3-ASO uptake and activity, fold_change [1] | other: receptor-mediated GN3-ASO uptake and activity [2] | expression_or_secretion [3]
B1 | no change | no change | no change
B2 | no change | no change | no change
B3 | – | no change | no change
